Laboratory results: patent US20220096654A1, “PYRROLOBENZODIAZEPINE-ANTIBODY CONJUGATES AND USES THEREOF” (ADC THERAPEUTICS SA, priority 2020, published 2022)

Tests used:
[1] = test system: Jurkat (CD45+); experiment: Cell viability assay 72 h (PrestoBlue), Jurkat; type: cell-based, human; conditions: drug-linker B1
Experimental: (§1) OCIM1, Jurkat and Nalm6 cells were seeded at 0.5×10^5/mL were cultured for 72 hours in presence of Mab or ADC or medium (in triplicate wells) in wells of flat bottom 96-well plates. 293T cells were seeded at 9.3×10^3 cells per well in flat bottom 96-well plates and allowed to adhere the plate for up to 24 hours. 293T cells were subsequently cultured with Mab or ADC or medium (in triplicate wells) for 72 hours. PrestoBlue® Cell viability Reagent (Thermo Fisher Scientific) was added to each and incubated for up to 1.5 hours. Fluorescence intensity from each well was detected using a FLUOstar OPTIMA microplate reader (BMG Labtech). Data points are mean±s.d. for representative experiments.

[2] = 1 mg/kg, NSG mice; for T %: serum ELISA
Experimental: Adult (non-humanized) NSG mice were injected with 1 mg/kg ADC. Three mice were used for each ADC. Samples were taken from mice at between 3 h and 168 h after injection. Serum samples were analyzed by ELISA using recombinant human CD45 (Bio-Techne). Goat anti-rat IgG (H+L) (cross absorbed) and sulfoTAG Streptavidin was used to detect the total amounts of the YTH antibodies. Anti-drug antibody was used to detect the level of conjugated antibody.

[3] = test system: Nalm6 (CD45-); experiment: Cell viability assay 72 h (PrestoBlue), Nalm6; type: cell-based, human; conditions: drug-linker B1
Experimental: as §1

[4] = test system: luciferase expressing human CD45+ Jurkat cells; experiment: Jurkat leukaemia model in NSG mice (bioluminescence, survival); type: in vivo; conditions: 1 mg/kg; for mice remained leukaemia free: day 16
Experimental: Adult NSG mice were sublethally irradiated with 2 Gy on the day before injection of cells. 5×10^6 fire fly luciferase expressing Jurkat cells in PBS were injected intravenously into the tail vein of mice. On the following day PBS, MAbs or ADC were injected intravenously into the tail vein at a dose of 1 mg/kg. Mice were regularly monitored for signs of morbidity and weight loss for the duration of the experiment. For imaging, mice were injected intraperitoneally with 3 mg D-luciferin in PBS. Mice were initially anesthetized with 4% isoflurane and then maintained at 2% isoflurane. Ten minutes after injection of D-luciferin, mice were imaged inside a IVIS Lumina III (PerkinElmer). A sub-saturating image was captured using the auto-exposure setting in the Living Image software.

[5] = test system: OCIM1 (CD45+); experiment: Cell viability assay 72 h (PrestoBlue), OCIM1; type: cell-based, human; conditions: drug-linker B1
Experimental: as §1

[6] = test system: human CD45+ cells; experiment: Engraftment of a second transplant of GFP+ autologous CD34+ cells in humanised NSG mice after conditioning; type: in vivo; conditions: 1 mg/kg (combination 0.5 mg/kg each); 9 weeks after GFP+ cell transplant
Experimental: Adult female NSG mice were sublethally irradiated with 2.5 Gy on the day before transplantation (day −1). Cryopreserved purified CD34+ cells from mobilized peripheral blood from a normal donor were thawed and 0.5×10^6 cells in PBS were injected intravenously into the tail vein of mice (day 0). Human engraftment (human CD45+ cells) in the blood of mice was assessed at week 8. Mice were assigned to treatment cohorts so that the median human CD45+ engraftment in the blood for each cohort was as similar as possible. Mice were injected with 1 mg/kg Mab or ADC or a combination of YTH MAbs (0.5 mg/kg each) or YTH ADCs (0.5 mg/kg each) intravenously via the tail vein. Mice were subsequently transplanted with lentivirally transduced green fluorescent protein (GFP) autologous CD34+ cells (Week 10). A separate cohort of sublethally irradiated (non-humanized) NSG were injected with the same batch of GFP transduced cells served as a positive control for GFP+ human cell engraftment. Nine weeks after GFP+ cell transplant, mice were culled and blood, spleen and bone marrow taken for analysis.

[7] = test system: human CD45+ cells; experiment: Depletion of human CD45+ cells in humanised NSG mice; type: in vivo
Experimental: Adult female NSG mice were sublethally irradiated with 2.5 Gy on the day before transplantation (day −57). Cryopreserved purified CD34+ cells from mobilized peripheral blood from a normal donor were thawed and 0.5×10^6 cells in PBS were injected intravenously into the tail vein of mice (day −56). Human engraftment (human CD45+ cells) in the blood of mice was assessed at day −14 and day −1. Mice were assigned to treatment cohorts so that the median human CD45+ engraftment in the blood between the cohorts was as similar as possible. Mice were injected with 0.3 mg/kg or 1 mg/kg Mab or ADC intravenously via the tail vein. Blood samples were taken after 7 days and analysed by flow cytometry. The bone marrow, blood and spleen of mice were analysed at two weeks post-treatment.

[8] = test system: human CD34+ cells; experiment: Ex vivo treatment of CD34+ cells with Mab or ADC prior to engraftment in NSG mice; conditions: CD34+ cells treated at 1 nM and 0.1 nM for 4 hours before transplantation; week 8
Experimental: Adult female NSG mice were sublethally irradiated with 2.5 Gy on the day before transplantation. Cryopreserved purified CD34+ cells from mobilized peripheral blood from a normal donor were thawed and cultured in complete medium (RPMI 1640 plus 10% fetal calf serum) in presence of Mab, ADC or medium alone for 4 hours. Cells were washed in phosphate buffered saline (PBS) and 0.5×10^6 cells in PBS were injected intravenously into the tail vein of mice. Engraftment of transplanted human cells (hCD45+) in the bone marrow of mice was determined by flow cytometry at 8 weeks after transplantation.

[9] = Dosimetry in non-humanised NSG mice; type: in vivo; conditions: non-humanised NSG mice, monitored 2 weeks
Experimental: For dosimetry in non-humanised NSG mice, adult NSG mice were injected intravenously via the tail vein with unconjugated Mab or ADC up to 5 mg/kg. Mice regularly monitored over a period of 2 weeks for any signs of morbidity. Mice were culled if rapid weight loss (>15%) occurred over a period of 2 days.

[10] = test system: 293T (CD45-); experiment: Cell viability assay 5 days (PrestoBlue), 293T; type: cell-based, human; conditions: rat IgG2b ADC, n=3
[11] = test system: Nalm6 (CD45-); experiment: Cell viability assay 5 days (PrestoBlue), Nalm6; type: cell-based, human; conditions: rat IgG2b ADC, n=3

Molecule | EC50 values, viability assay, Jurkat (CD45+) [1] | time after injection by which below the lower limit of detection [2] | T % [2] | EC50 [3] | surviving mice at end of day 70 [4] | mice remained leukaemia free [4] | EC50 values, viability assay, OCIM1 (CD45+) [5] | GFP+CD34+ out of total human CD34+ cells in the bone marrow [6] | Mean % hCD45 levels in blood, 1 week post-treatment ([7]; 0.3 mg/kg i.v.) | Mean % hCD45 levels in blood, 2 weeks Post-treatment ([7]; 0.3 mg/kg i.v.) | Mean % hCD45 levels in blood, 1 week post-treatment ([7]; 1 mg/kg i.v.) | Mean % hCD45 levels in blood, 2 weeks Post-treatment ([7]; 1 mg/kg i.v.) | Mean % hCD45 levels in blood, Pre-treatment ([7]; group later dosed 0.3 mg/kg) | Mean % hCD45 levels in blood, Pre-treatment ([7]; group later dosed 1 mg/kg) | engraftment of human CD45+ cells in the bone marrow of NSG mice [8] | Comment (survival / culling) ([9]; 0.5 mg/kg i.v.) | Comment (survival / culling) ([9]; 5 mg/kg i.v.) | EC50 [10] | EC50 [11] | further results
YTH24.5-B1: rat IgG2b anti-CD45 antibody YTH24.5 conjugated to cleavable PBD drug-linker B1 (drawing 43) (conjugate) heavy: QVNLLQSGAALVKPGASVKLSCKASSYTFTDYYIHWVKQSHGKTLEWIGYINPKSGFTNYNEKFRRKATLTVDKSTNTAYMDISRLTSEDSATYYCTRRTGVIPMDAWGQGASVTVSSAQTTAPSVYPLAPGCGDTTSSTVTLGCLVKGYFPEPVTVTWNSGALSSDVHTFPAVLQSGLYTLTSSVTSSTWPSQTVTCNVAHPASSTKVDKKVERRNGGIGHKCPTCPTCHKCPVPELLGGPSVFIFPPKPKDILLISQNAKVTCVVVDVSEEEPDVQFSWFVNNVEVHTAQTQPREEQYNSTFRVVSALPIQHQDWMSGKEFKCKVNNKALPSPIEKTISKPKGLVRKPQVYVMGPPTEQLTEQTVSLTCLTSGFLPNDIGVEWTSNGHIEKNYKNTEPVMDSDGSFFMYSKLNVERSRWDSRAPFVCSVVHEGLHNHHVEKSISRPPGK light: DVVMTQTPVSLSVSLGGQVSISCRSSQSFVSSDGNTYLNWYLQKPGQSPQLLIYKVSNRLSGVPDRFSGSGSGTDFTLKISRVEHDDLGVYYCGQASKIPLTFGSGTKLEIKRADAAPTVSIFPPSMEQLTSGGATVVCFVNNFYPRDISVKWKIDGSEQRDGVLDSVTDQDSKDSTYSMSSTLSLTKVEYERHNLYTCEVVHKTSSSPVVKSFNRNEC | low pM range | ~4 days | 1.49 days | 2.83 nM | had surviving mice | 5 of 5 | low pM range | ~80% | 5.63% | 1.75% | 1.08% | 0.64% | 8.89% | 6.08% | prevented engraftment | All alive at day 14 | All alive at day 14 | > 6 nM | 0.00934 nM | course of the levels of human CD45+ cells in blood ([7]; 0.3 mg/kg, two week period): persistent loss
YTH54.12-B1: rat IgG2b anti-CD45 antibody YTH54.12 conjugated to cleavable PBD drug-linker B1 (drawing 43) (conjugate) heavy: EVQLVESGGGLVQPGGSMKLSCAASGFTFSDYYMAWVRQAPKKGLEWVASMSFAGSSTYYGDSVKGRFTISRDNAKTTLYLQMNSLRSEDTATYYCARMYTTDYYLYWYFDFWGPGTMVTVSSAQTTAPSVYPLAPGCGDTTSSTVTLGCLVKGYFPEPVTVTWNSGALSSDVHTFPAVLQSGLYTLTSSVTSSTWPSQTVTCNVAHPASSTKVDKKVERRNGGIGHKCPTCPTCHKCPVPELLGGPSVFIFPPKPKDILLISQNAKVTCVVVDVSEEEPDVQFSWFVNNVEVHTAQTQPREEQYNSTFRVVSALPIQHQDWMSGKEFKCKVNNKALPSPIEKTISKPKGLVRKPQVYVMGPPTEQLTEQTVSLTCLTSGFLPNDIGVEWTSNGHIEKNYKNTEPVMDSDGSFFMYSKLNVERSRWDSRAPFVCSVVHEGLHNHHVEKSISRPPGK light: DVQMTQSPSYLAASPGESVSISCKASKSISNYLAWYQQKPGEANKILIYSGSTLQSGTPSRFSGSGSGTDFSLTIRNLEPEDFAVYYCQQYDEKPLTFGSGTKLEIKRADAAPTVSIFPPSMEQLTSGGATVVCFVNNFYPRDISVKWKIDGSEQRDGVLDSVTDQDSKDSTYSMSSTLSLTKVEYERHNLYTCEVVHKTSSSPVVKSFNRNEC | low pM range | ~4 days | 1.53 days | 4.23 nM | had surviving mice | 4 of 5 | low pM range | ~80% | 2.99% | 1.31% | 0.75% | 0.38% | 5.37% | 6.14% | prevented engraftment | All alive at day 14 | All alive at day 14 | > 6 nM | 0.00964 nM | AUC relative to YTH24.5-PBD [2]: ~1.5 times
